Laboratory results taken from publication PMC5645493, “LAR-RPTP Clustering Is Modulated by Competitive Binding between Synaptic Adhesion Partners and Heparan Sulfate” (Frontiers in Molecular Neuroscience, 2017).

B1: human PTPδ Ig1-3(+/+) (domain or fragment)
chain: ETPPRFTRTPVDQTGVSGGVASFICQATGDPRPKIVWNKKGKKVSNQRFEVIEFDDGSGSVLRIQPLRTPRDEAIYECVASNNVGEISVSTRLTVLREDQIPRGFPTIDMGPQLKVVERTRTATMLCAASGNPDPEITWFKDFLPVDTSNNNGRIKQLRSESIGGTPIRGALQIEQSEESDQGKYECVATNSAGTRYSAPANLYVRELREVRRVPPRFSIPPTNHEIMPGGSVNITCVAVGSPMPYVKWMLGAEDLTPEDDMPIGRNVLELNDVRQSANYTCVAMSTLGVIEAIAQIT
notes: receptor-type tyrosine-protein phosphatase delta (PTPδ), human, Ig-like domains 1-3, splice form with the MeA and MeB inserts (+/+); In the functional rows the Fc-fused form (Fc not cleaved) was used; also called PTPδ Ig1-3 MeA+MeB+; LAR-RPTP (PTPδ); source: High Five insect cells (baculovirus), secreted, purified (IgG Sepharose or protein A Sepharose, thrombin, Superdex 200)
B2: human IL1RAPL1 Ig1-3 (domain or fragment)
chain: SADGCTDWSIDIKKYQVLVGEPVRIKCALFYGYIRTNYSLAQSAGLSLMWYKSSGPGDFEEPIAFDGSRMSKEEDSIWFRPTLLQDSGLYACVIRNSTYCMKVSISLTVGENDTGLCYNSKMKYFEKAELSKSKEISCRDIEDFLLPTREPEILWYKECRTKTWRPSIVFKRDTLLIREVREDDIGNYTCELKYGGFVVRRTTELTVTAPLTDKPPKLLYPMESKLTIQETQLGDSANLTCRAFFGYSGDVSPLIYWMKGEKFIEDLDENRVWESDIRILKEHLGEQEVSISLIVDSVEEGDLGNYSCYVENGNGRRHASVLL
modifications: glycans (NAG2-BMA-MAN) attached to N138
notes: IL-1 receptor accessory protein-like 1 (IL1RAPL1), human, Ig-like domains 1-3 of the extracellular part; In the functional row the Fc-fused form (Fc not cleaved) was used; also called IL-1 receptor accessory protein-like 1; IL1RAPL1 Ig1-3-Fc / IL1RAPL1-Fc (Fc kept, in the clustering assays only); source: High Five insect cells (baculovirus), secreted, purified (IgG Sepharose or protein A …)

Columns and labels:
human IL1RAPL1 Ig1-3 = molecular target: B2; test: crystal structure; PTPδ Ig1-3(+/+) mixed with IL1RAPL1 Ig1-3 at 1:1, complex isolated by gel filtration; sitting drop, 296 K, 100 mM Tris-HCl pH 7.5, 200 mM zinc acetate, 10% PEG8K; space group P3_(2)12; 3.08 Å; conditions: both partners purified
[1] = molecular target: the molecule itself; test: as above

B1
binding result (human IL1RAPL1 Ig1-3): binds | binding result [1]: binds

B2
binding result [1]: binds
